# Measurements as given in US20040180443, “Methods for transfer of DNA segments” (Stratagene, published 2004).
# Target: Cre recombinase (Bacteriophage P1?, UniProt P06956 P06956:1-343)
# Experiment: in vitro loxP x loxP plasmid co-integration, 50 mM Tris pH 7.5, 10 mM MgCl2, 30 mM NaCl, 37 C 45 min; read out by product vector rescue in E. coli (1.2x10^4 and 8.2x10^5 colonies per ug second vector)
# Settings: tags: Stratagene; chain copies: 4
# Description: To rescue the product vector from the co-integrate vector, chemically competent XL1-blue or XL10 gold (kanR) (both strains from Stratagene, LaJolla, Calif.) were transformed with the above recombination reaction. Either strain has high transformation efficiencies and carries the F′ plasmid required to render the host infectable by filamentous phages such as f1. Transformation was performed by mixing 2.5 μl of the recombination reaction with 100 μl of competent cells, incubation on ice for 20 minutes and subsequent hear shock at 42° C. for 45 seconds. After the heat shock, 1 ml of 1×NZY, 10 μl of Exassist helper phage (10⁸ pfu; Stratagene, LaJolla, Calif.) and 100 μl of a fresh stationary culture of XLOLR-S^R were added and incubated for 2 hours at 37° C. while shaking. The XLOLR-S^R strain serves as the secondary host. The secondary host can be selected for with Streptomycin. Exassist is used as a helper phage allowing packaging of the rescued single-stranded product vector. […]
# Plasmid DNA of 18 blue colonies were analyzed by restriction digestion. […] All white colonies analyzed by restriction digestion were indistinguishable from the second vector and presumably resulted form mutations in the rpsL insert serving as the negative selectable marker. […]
# Cre recombinase, sequence (P06956 whole entry, one chain of several): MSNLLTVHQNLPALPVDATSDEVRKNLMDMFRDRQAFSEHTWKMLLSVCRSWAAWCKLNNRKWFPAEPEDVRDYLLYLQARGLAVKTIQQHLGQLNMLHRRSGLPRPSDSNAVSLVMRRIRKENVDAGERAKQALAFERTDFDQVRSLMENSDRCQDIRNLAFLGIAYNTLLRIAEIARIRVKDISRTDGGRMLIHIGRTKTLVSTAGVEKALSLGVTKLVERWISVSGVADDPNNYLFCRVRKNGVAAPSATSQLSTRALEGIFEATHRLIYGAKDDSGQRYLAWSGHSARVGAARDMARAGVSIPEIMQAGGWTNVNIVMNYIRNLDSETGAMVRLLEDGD
binder,measurement,value
loxP site (wild type) in first and second vectors (dsDNA) DNA 1: CGAATTGGAGCTATAACTTCGTATAATGTATGCTATACGAAGTTATCATATGGCGGTGGCGGCCGCTCTAGAAC DNA 2: GTTCTAGAGCGGCCGCCACCGCCATATGATAACTTCGTATAGCATACATTATACGAAGTTATAGCTCCAATTCG,binding result,binds
